{"source": "patent US20060073572A1", "about": "“Cytokine structurally related to IL-17” (The Johns Hopkins University, priority 2001, published 2006)", "molecules": {"B1": {"name": "ML-1: new member of the IL-17 cytokine family, SEQ ID NO:2; His-tagged recombinant protein expressed in COS-7 cells and affinity purified (protein, listed as Homo sapiens)", "chain": "MKLDIGIINENQRVSMSRNIESRSTSPWNYTVTWDPNRYPSEVVQAQCRNLGCINAQGKEDISMNSVPIQQETLVVRRKHQGCSVSFQLEKVLVTVGCTCVTPVIHHVQ", "modifications": "His tag"}}, "key": {"IL-6": {"test_system": "IL-6", "experiment": "IL-6 expression in PBECs (ELISA, RT-PCR)", "format": "cell-based, human", "settings": "ML-1 10 and 100 ng/ml, 24 and 48 hours, ELISA", "experimental": "(§1) FIG. 5. Analysis of IL-6 (FIG. 5A) and IL-8 (FIG. 5B) expression in primary bronchial epithelial cells (PBECs) and human umbilical vein endothelial cells (HUVECs) stimulated by ML-1. The IL-6 and IL-8 protein release in the supernatant was determined by ELISA as described in Example 8. The results were expressed as mean+SD (n=6). *p<0.05 was considered significant vs control.\n(§2) FIG. 7A-7D. Effect of PD98059 on IL-6 (FIG. 7A) and IL-8 (FIG. 7B) protein production in PBECs and HUVECs. The cells were preincubated with varying concentrations of PD98059, SB202190, or DMSO vehicle control for 1 hour, followed by stimulation with ML-1 (100 ng/ml) for 24 hours. The results are expressed as the mean+SD (n=6). *P<0.05 when compared to cultures without the addition of PD98059. FIGS. 7C and 7D. Semi-quantitative analysis of gene expression for IL-6 (FIG. 7C) and IL-8 (FIG. 7D) by RT-PCR. The cells were preincubated as described above and treated with ML-1 for 4 hours. RT-PCR was performed as described in Example 8. The results shown are representative of three separate experiments.\n(§3) Primary bronchial epithelial cells (PBECs) were purchased from Clonetics (San Diego, Calif.) and cultured in bronchial epithelial basal medium (Clonetics) containing 0.5 ng/ml human recombinant epidermal growth factor (EGF), 52 mg/ml bovine pituitary extract, 0.1 mg/ml retinoic acid, 0.5 mg/ml hydrocortisone, 5 mg/ml insulin, 10 mg/ml transferrin, 0.5 mg/ml epinephrine, 6.5 ng/ml triiodothyronine, […] gentamicin, and 50 pg/ml amphotericin-B (Clonetics). […]\n(§4) The amplification reaction was performed for 23 cycles with denaturation at 94° C. for 45 seconds, annealing at 56° C. for 45 seconds, and extension at 72° C. for 45 seconds. PCR products were detected by ethidium bromide staining and normalized by the intensity of an amplified housekeeping gene, G3PDH (see above). […] IL-6 and IL-8 protein levels in the collected supernatants were determined with a commercially available ELISA kit (Biosource, Camarillo, Calif.) according to the manufacturer's instructions."}, "IL-8": {"test_system": "IL-8", "experiment": "IL-8 expression in PBECs (ELISA, RT-PCR)", "format": "cell-based, human", "settings": "ML-1 10 and 100 ng/ml, 24 and 48 hours, ELISA", "experimental": "as §1, §2, §3, §4"}}, "note": "“Also recorded” adds a separate entry of the source."}
{"molecule": "B1", "values": [{"measurement": "IL-6 production", "setting": "IL-6", "value": "time-dependent increase; also recorded: significantly induced"}, {"measurement": "IL-8 production", "setting": "IL-8", "value": "time-dependent increase; also recorded: significantly induced"}]}
